Laboratory results from patent US20220064329A1 (Novo Nordisk, published 2022).
Positions count from the first letter of the chain named.

B1: mAb0007 (antibody, V domains shown)
VH: DVQLQESGPGLVEPSQSLSLTCTVTGYSITSDCAWSWIRQFPGNKLEWMGYINYSGSTNYNPSLKSRISITRDTSKNQFFLRLNSVTGEDTATYYCARSVNYYGNSFAVGYWGQGTSVTVSS
VL: DIVMTQSPATLSVTPGDRVSLSCRASQSISDYLHWYQHKSHESPRLLIKYVSQPISGIPSRFSGSGSGSEFTLSINSVEPEDVGVYYCQNGHSFPLTFGAGTKLELK
notes: fully murine, hybridoma-derived; also called 11F34
B2: mAb0544 (antibody, V domains shown)
VH: B1 VH with E13K, S36N, K76Q, Q78H, R82Q, N84S, G88A, A97T, T116I
VL: DIVMSQSPATLSVTPGDRVSLSCRTSQDIGDYLHWYRQKSHESPRLLIKYTSQSVSGIPSRFSGSGSGSDFTLSINTVEPEDVGLYYCQNGHSFPLTFGTGTRLELK
notes: fully murine, hybridoma-derived; also called 11F9
B3: mAb0552 (antibody, V domains shown)
VH: B1 VH with E13K, S36N, Q78H, R82Q, G88A, N101D, Y103F, T119A
VL: B1 VL with H38Q, V51S, P54S, E70D
notes: fully murine, hybridoma-derived; also called 11F18
B4: mAb0005 (antibody, V domains shown)
VH: B1 VH with I70V, N84S, G88A, A97T
VL: B1 VL with P15A, S28G, H38Q, V51T, I55V
notes: fully murine, hybridoma-derived; also called 11F2; mAb005
B5: biAb0241 (bispecific antibody, human IgG4 S228P, kappa)
heavy 1: QVQLQESGPGLVKPSQTLSLTCTVSGYSISSDSAWSWIRQPPGKGLEWIGYIQYSGSTNYNPSLKSRVTISRDTSKNQFSLKLSSVTAADTAVYYCARSVNYYGNSFAVGYWGQGTLVTVSSASTKGPSVFPLAPCSRSTSESTAALGCLVKDYFPEPVTVSWNSGALTSGVHTFPAVLQSSGLYSLSSVVTVPSSSLGTKTYTCNVDHKPSNTKVDKRVESKYGPPCPPCPAPEFLGGPSVFLFPPKPKDTLMISRTPEVTCVVVDVSQEDPEVQFNWYVDGVEVHNAKTKPREEQFNSTYRVVSVLTVLHQDWLNGKEYKCKVSNKGLPSSIEKTISKAKGQPREPQVYTLPPSQEEMTKNQVSLTCLVKGFYPSDIAVEWESNGQPENNYKTTPPVLDSDGSFLLYSKLTVDKSRWQEGNVFSCSVMHEALHNHYTQKSLSLSLGK
light 1: EIVLTQSPATLSLSPGERATLSCRASQGISDYLHWYQQKPGEAPRLLIKYTSQPATGIPARFSGSGSGTDFTLTISSLEPEDFAVYYCQNGHSFPLTFGQGTKLEIKRTVAAPSVFIFPPSDEQLKSGTASVVCLLNNFYPREAKVQWKVDNALQSGNSQESVTEQDSKDSTYSLSSTLTLSKADYEKHKVYACEVTHQGLSSPVTKSFNRGEC
heavy 2: not shown
light 2: DIVVSQSPSSLAVSAGEKVTMSCKSSQSLLNSRTRKNYLAWYQQKPGQSPKLLIYWASTRESGVPDRFTGSGSGTDFTLTISSVQAEDLAVYYCKQSYNLLTFGAGTKLELKRTVAAPSVFIFPPSDEQLKSGTASVVCLLNNFYPREAKVQWKVDNALQSGNSQESVTEQDSKDSTYSLSSTLTLSKADYEKHKVYACEVTHQGLSSPVTKSFNRGEC
B6: biAb0242 (bispecific antibody, human IgG4 S228P, kappa)
heavy 1: B5 heavy 1
light 1: B5 light 1
heavy 2: not shown
light 2: SIVMTQTPKFLLVSAGDRVTITCKASQSVSNDVAWYQQKPGQSPKLLINYASSRYTGIPDRFTGSGYGTDFTFTISTVQAEDLAVYFCQQDYSSPYTFGGGTKLEIERTVAAPSVFIFPPSDEQLKSGTASVVCLLNNFYPREAKVQWKVDNALQSGNSQESVTEQDSKDSTYSLSSTLTLSKADYEKHKVYACEVTHQGLSSPVTKSFNRGEC
B7: biAb0243 (bispecific antibody, human IgG4 S228P, kappa)
heavy 1: B5 heavy 1
light 1: B5 light 1
heavy 2: not shown
light 2: DIQMTQTTSSLSASLGDRVTISCRASQDISNYLNWYQQKPDGTVKLLIFYTSRLHSGVPSRFSGSGSGTDYSLTISNLEPEDIATYYCQQDTKLPYTFGGGTKLEMKRTVAAPSVFIFPPSDEQLKSGTASVVCLLNNFYPREAKVQWKVDNALQSGNSQESVTEQDSKDSTYSLSSTLTLSKADYEKHKVYACEVTHQGLSSPVTKSFNRGEC
B8: mAb0587 (antibody, V domains shown)
VH: QVQLQQSGAELLKPGASVKISCKATDYTFSRYWIEWVKQRPGHGLEWIGEILPGSVNIKYNEIFKGKATFTAETSSNTAYMQLSSLTSEDSAVYYCTRTPYLQRGAYWGQGTLVTVSA
VL: QIVLTQSPAIMSASPGEKVTITCSASSSVSYMFWFQQKPGTSPKLWIYSTSNLASGVPARFSGSGSGTSYSLTISRMEAEDAATYYCQQRSSYPLTFGAGTKLELK
notes: fully murine, hybridoma-derived; also called 12F39
B9: mAb0578 (antibody, V domains shown)
VH: QVQLQQSGAELMKPGASVKISCKATGYTFNTYWIEWVKQRPGHGLEWIGEILPGRGTTNYNENFKGKATITADISSNTAYLQLSSLTGEDSAVYYCARLTPLSLRTGYWGQGTTLTVSS
VL: DILLTQSPAILSVSPGERVSFSCRASQSIGTSIHWYQQRTNGSPRLLIKYASESISGIPSRFSGSGSGTDFTLSINSVESEDIADYYCQQSNSWPFTFGSGTKLEIK
notes: fully murine, hybridoma-derived; also called 12F19
B10: mAb0001 (antibody, V domains shown)
VH: EIQLQQTGPELVKPGASVKISCKASGYSFTDYIMVWMKQSQGKTLEWIGKINPYYGDISYNLKFKGKATLTVDKSSSTVYMQLNSLASEDSAVYYCARGFYYDYFDQWGQGTTLTVSS
VL: DVMVTQTPLSLPVNLGDQASISCRSSQSLVHSNGNTYLHWYLQKPGQSPKLLIYRVSDRFSGVPDRFSGSGSGTDFTLKISRVEAEDLGVYFCSQSTHVPPTFGGGTKLEIK
notes: fully murine, hybridoma-derived; also called 11F26
B11: biAb0244 (bispecific antibody, human IgG4 S228P, kappa)
heavy 1: QVQLKESGPGLVAPSQSLSITCTVSGFSLTDYGVSWIRQPPGKGLEWLGVIWGGGNTYNNSALKSRLSISKDNSKSQVFLKMNSLQADDTAMYFCAKHGYYGYVMDYWGQGTSVTVSSASTKGPSVFPLAPCSRSTSESTAALGCLVKDYFPEPVTVSWNSGALTSGVHTFPAVLQSSGLYSLSSVVTVPSSSLGTKTYTCNVDHKPSNTKVDKRVESKYGPPCPPCPAPEFLGGPSVFLFPPKPKDTLMISRTPEVTCVVVDVSQEDPEVQFNWYVDGVEVHNAKTKPREEQFNSTYRVVSVLTVLHQDWLNGKEYKCKVSNKGLPSSIEKTISKAKGQPREPQVYTLPPSQEEMTKNQVSLTCLVKGFYPSDIAVEWESNGQPENNYKTTPPVLDSDGSFLLYSKLTVDKSRWQEGNVFSCSVMHEALHNHYTQKSLSLSLGK
light 1: DIVMTQSHKIMSTLVGDRVSITCKASQDVDPAVAWYQQKPGQYPKLLIYWASTRHTGVPDRFTGSGSGTDFTLTISNVQSEDLADYFCQQYSKYPYTFGGGTKLEIKRTVAAPSVFIFPPSDEQLKSGTASVVCLLNNFYPREAKVQWKVDNALQSGNSQESVTEQDSKDSTYSLSSTLTLSKADYEKHKVYACEVTHQGLSSPVTKSFNRGEC
heavy 2: not shown
light 2: DIVMTQTPLSSPVTLGQPASISCRSSQSLVHRQGNTYFHWLQQRPGQPPRLLIYKVSNRFSGVPDRFSGSGAGTDFTLKISRVEAEDVGVYYCSQSTHVPYTFGQGTKLEIKRTVAAPSVFIFPPSDEQLKSGTASVVCLLNNFYPREAKVQWKVDNALQSGNSQESVTEQDSKDSTYSLSSTLTLSKADYEKHKVYACEVTHQGLSSPVTKSFNRGEC

How the values were obtained:
[1] = target: T1, recombinant human activated Factor VII (FVIIa) (human, UniProt P08709 61-212; P08709 213-466, Gla domain: ten glutamate residues may be gamma-carboxylated); test: cell-based or functional assay
T1 sequence 1: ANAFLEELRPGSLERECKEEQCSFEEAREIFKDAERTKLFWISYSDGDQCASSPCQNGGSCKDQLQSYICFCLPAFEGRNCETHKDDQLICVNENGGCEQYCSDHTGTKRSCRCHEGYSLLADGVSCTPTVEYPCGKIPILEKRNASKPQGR
T1 sequence 2: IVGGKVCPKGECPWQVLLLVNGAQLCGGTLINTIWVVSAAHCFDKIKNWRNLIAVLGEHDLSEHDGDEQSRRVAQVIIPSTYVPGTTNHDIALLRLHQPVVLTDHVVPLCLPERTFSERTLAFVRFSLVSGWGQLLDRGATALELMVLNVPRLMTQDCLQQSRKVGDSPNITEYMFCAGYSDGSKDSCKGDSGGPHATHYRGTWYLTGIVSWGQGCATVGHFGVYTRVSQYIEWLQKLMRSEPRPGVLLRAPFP

[2] = target: T1, recombinant human activated Factor VII …; test: SPR (Biacore T200), antibody captured on anti-murine IgG, FVIIa injected at 5-135 nM, 1:1 model
Procedure: Anti-murine IgG (by GE Healthcare) was immobilised on a CM4 sensor chip using standard amine coupling chemistry kit (both supplied by GE Healthcare). […] The running buffer was prepared by diluting 10-fold the 10×HBS-P buffer (supplied by GE Healthcare) and supplemented with 1 mg/ml BSA and 5 mM CaCl₂) to give 10 mM HEPES, 150 mM NaCl, 0.05% v/v Polysorbate 20(P20), pH 7.4, 5 mM CaCl₂), 1 mg/ml bovine serum albumin (BSA). […] Regeneration of the chip was achieved using regeneration buffer consisting of 10 mM Gly-HCl pH 1.7 (supplied by GE Healthcare). Binding data were analysed according to a 1:1 model using BiaEvaluation 4.1 supplied by the manufacturer (Biacore AB, Uppsala, Sweden).

[3] = target: T2, recombinant human activated FVII (FVIIa) (human, UniProt P08709 61-212; P08709 213-466, ten glutamate residues of the Gla domain may be gamma-carboxylated); test: cell-based or functional assay
T2 sequence 1: T1 sequence 1
T2 sequence 2: T1 sequence 2

Binder | AT inhibition (kinh %) [1] | TGT activity (% FVIIa) [1] | Kd [2] | Stimulation (fold): FXa generated by FVIIa with lipidated TLT-1 and 100 nM biAb, relative to free FVIIa [3]
B1 | 121% | 113 % FVIIa | 0.25 nM | –
B2 | 111% | 103 % FVIIa | 0.27 nM | –
B3 | 118% | 104 % FVIIa | 0.76 nM | –
B4 | 133% | 115 % FVIIa | 0.14 nM | –
B5 | – | – | – | 35.3 fold
B6 | – | – | – | 21.8 fold
B7 | – | – | – | 25.5 fold
B8 | 103% | 93 % FVIIa | 0.49 nM | –
B9 | 77% | 91 % FVIIa | 0.58 nM | –
B10 | 82% | 109 % FVIIa | 0.17 nM | –
B11 | – | – | – | 2.7 fold
